Five substances from patent US8778880 can be followed below.

In experiment [1] the target is human growth hormone receptor on IM-9 cells (human) (UniProt P10912). Put plainly: cell-based or functional assay.
Experiment [2] addresses T1, rat GHR (L43R) on BAF3 cells (clone 2E2-2B12-F4) (rat) (UniProt P16310).
T1 sequence (looked up): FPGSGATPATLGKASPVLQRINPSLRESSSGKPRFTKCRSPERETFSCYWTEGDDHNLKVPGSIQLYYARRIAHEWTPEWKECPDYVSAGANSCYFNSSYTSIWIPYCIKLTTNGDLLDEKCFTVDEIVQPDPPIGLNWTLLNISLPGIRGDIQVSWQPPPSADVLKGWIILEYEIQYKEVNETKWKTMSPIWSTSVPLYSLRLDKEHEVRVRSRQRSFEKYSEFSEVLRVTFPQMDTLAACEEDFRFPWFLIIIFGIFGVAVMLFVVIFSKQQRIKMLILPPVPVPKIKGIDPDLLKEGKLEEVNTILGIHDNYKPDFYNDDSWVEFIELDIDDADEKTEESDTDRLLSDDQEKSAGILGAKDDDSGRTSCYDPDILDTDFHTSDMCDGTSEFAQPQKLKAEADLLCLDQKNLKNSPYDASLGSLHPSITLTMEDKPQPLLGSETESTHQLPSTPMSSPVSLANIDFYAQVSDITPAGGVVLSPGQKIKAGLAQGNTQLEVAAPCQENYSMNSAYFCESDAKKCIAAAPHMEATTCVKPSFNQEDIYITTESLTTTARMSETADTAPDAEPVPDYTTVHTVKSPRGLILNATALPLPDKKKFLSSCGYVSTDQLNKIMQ
Put plainly: cell-based or functional assay.

Chain of UniProt P10912 (P10912 19-638): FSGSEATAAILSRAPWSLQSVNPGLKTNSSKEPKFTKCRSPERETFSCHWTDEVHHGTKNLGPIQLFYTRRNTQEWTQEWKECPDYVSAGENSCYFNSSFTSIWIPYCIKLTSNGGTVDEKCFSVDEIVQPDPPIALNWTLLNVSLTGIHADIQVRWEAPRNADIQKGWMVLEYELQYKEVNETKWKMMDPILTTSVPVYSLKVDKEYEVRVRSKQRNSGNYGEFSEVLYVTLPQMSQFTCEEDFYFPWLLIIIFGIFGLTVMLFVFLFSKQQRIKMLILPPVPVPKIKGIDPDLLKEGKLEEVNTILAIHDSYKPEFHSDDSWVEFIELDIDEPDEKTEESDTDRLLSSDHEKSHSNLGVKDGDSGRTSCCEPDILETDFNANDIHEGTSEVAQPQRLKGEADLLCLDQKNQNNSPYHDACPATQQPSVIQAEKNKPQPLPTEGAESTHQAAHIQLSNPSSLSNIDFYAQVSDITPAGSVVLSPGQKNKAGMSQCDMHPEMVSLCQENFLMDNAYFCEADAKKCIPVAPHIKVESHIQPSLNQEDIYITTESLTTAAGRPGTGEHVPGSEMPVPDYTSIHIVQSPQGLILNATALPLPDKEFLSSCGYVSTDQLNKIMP

In the case of “hGH K145pAF-30KPEG (from UniProt P01241 27-217) (ligand)”, in experiment [1], the pSTAT5 EC50 (IM-9) (nM (head); WHO hGH expressed as unity) stood at 20.6. The substance also displayed a Proliferation EC50 (BrdU, rat GHR (L43R) BAF3 cells) (nM (head); WHO hGH expressed as unity) in experiment [2] of 5.3.
The matching figures for “hGH Y35pAF-40KPEG (from UniProt P01241 27-217) (ligand)”: 53.3 and 24.
In experiment [1], “hGH R134pAF-20KPEG (from UniProt P01241 27-217) (ligand)” showed a pSTAT5 EC50 (IM-9) (nM (head); WHO hGH expressed as unity) of 5.3.
Substance “hGH Y143pAF-30KPEG (from UniProt P01241 27-217) (ligand)” had a pSTAT5 EC50 (IM-9) (nM (head); WHO hGH expressed as unity) in experiment [1] of 12.3. This substance also yielded a Proliferation EC50 (BrdU, rat GHR (L43R) BAF3 cells) (nM (head); WHO hGH expressed as unity) in experiment [2] of 6.6.
The corresponding values for “hGH G131pAF-30KPEG (from UniProt P01241 27-217) (ligand)” are 23.8 and 4.6.
